The target in test [1] is T1, vascular endothelial growth factor (VEGF)-A121 (human, UniProt P15692-9 27-147).
T1 construct: mature; Purchased in mature form, not glycosylated
T1 sequence (looked up): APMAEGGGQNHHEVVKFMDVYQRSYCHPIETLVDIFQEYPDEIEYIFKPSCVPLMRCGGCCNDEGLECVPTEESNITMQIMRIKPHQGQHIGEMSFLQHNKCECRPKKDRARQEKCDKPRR
The experiment in a line: ELISA, peptide coated. Summed up:
(§1)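 Wells coated with 10 μg/mL laminin α3/α4/α5 LG-domain peptides, BSA-coated wells as non-binding control, blocked with 2% BSA PBS-T. Recombinant human GFs added at 1 μg/mL; bound GF detected with GF-specific biotinylated antibody plus streptavidin-HRP (n=4, mean±SEM).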
(In an ELISA, binding on a coated surface is turned into a signal by an enzyme label.)

Test [2] concerns the target T2, placental growth factor (PlGF)-2 (human, UniProt P49763-3 19-170).
T2 construct: mature; Purchased in mature form
T2 sequence (looked up): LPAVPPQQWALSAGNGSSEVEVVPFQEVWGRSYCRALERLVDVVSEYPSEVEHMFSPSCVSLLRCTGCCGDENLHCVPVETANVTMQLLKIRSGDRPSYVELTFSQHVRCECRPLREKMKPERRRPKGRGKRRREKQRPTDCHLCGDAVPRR
The test is described as follows: ELISA, peptide coated. Summed up: as §1

Test [3] has as its target T3, placental growth factor (PlGF)-1 (human, UniProt P49763-2 19-149).
T3 construct: mature; Purchased in mature form
T3 sequence (looked up): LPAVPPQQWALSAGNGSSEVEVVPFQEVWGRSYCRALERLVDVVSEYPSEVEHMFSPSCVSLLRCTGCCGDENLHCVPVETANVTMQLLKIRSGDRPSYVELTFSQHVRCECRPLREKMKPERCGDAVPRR
The test is described as follows: ELISA, peptide coated. Summed up: as §1

The target of test [4] is T4, platelet-derived growth factor (PDGF)-BB (human, UniProt P01127 82-190).
T4 construct: mature; Purchased in mature form
The experiment in a line: ELISA, peptide coated. The method in brief:
as §1

For test [5], the target named is T5, fibroblast growth factor (FGF)-2 (human, UniProt P09038 143-288).
T5 construct: mature; Purchased in mature form
The test is described as follows: ELISA, peptide coated. The method in brief: as §1

The target of test [6] is T6, vascular endothelial growth factor (VEGF)-A165 (human, UniProt P15692-4 27-191).
T6 construct: mature; Purchased in mature form, not glycosylated
The experiment in a line: ELISA, peptide coated. The method in brief:
as §1

In test [7] the target is T6, vascular endothelial growth factor …. The test is described as follows: ELISA, peptide coated 50 nM. The procedure:
(§2) ELISA was performed as previously reported1. […] After blocking with 2% BSA solution containing PBS-T, 1 μg/mL of recombinant human VEGF-A121 (PeproTech), recombinant human VEGF-A145 (R & D Systems), or recombinant human VEGF-A165 (PeproTech) was added. Bound VEGF-A was detected with 1 μg/mL of mouse anti-human VEGF-A antibody (clone: 26503, R & D systems). After 60 min of incubation, horseradish peroxidase (HRP) conjugated goat anti-mouse antibody (1:2000 dilution, Dako) was added and incubated for another 60 min. Color development and the absorbance measurement were done as described above.

The target of test [8] is T7, recombinant human VEGF-A145 (human, UniProt P15692-6 27-171).
T7 sequence (looked up): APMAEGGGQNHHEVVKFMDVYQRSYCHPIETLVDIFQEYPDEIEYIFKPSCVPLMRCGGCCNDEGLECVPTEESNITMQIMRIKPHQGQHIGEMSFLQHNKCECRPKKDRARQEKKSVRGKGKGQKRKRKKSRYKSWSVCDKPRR
The test is described as follows: ELISA, peptide coated 50 nM. The procedure: as §2

For test [9], the target named is T1, vascular endothelial growth factor …. The experiment in a line: ELISA; peptides and vWF forms coated at 50 nM, VEGF-A in solution, detected with anti-VEGF-A antibody [panel D]. The procedure: (A) Diagram of exon sequence of VEGF-A showing inclusion (+) or exclusion (−) of heparin binding domain exons for the different VEGF-A isoforms. […] Bound VEGF-A was detected using a specific antibody for VEGF-A (n=4, mean±SD). Statistical comparisons were done using ANOVA with Tukey's test compared with BSA control. **p<0.01.
as §2

T4 sequence (P01127 82-190): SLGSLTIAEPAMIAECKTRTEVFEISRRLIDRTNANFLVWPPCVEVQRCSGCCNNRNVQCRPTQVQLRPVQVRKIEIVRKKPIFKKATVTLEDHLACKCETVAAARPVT
T5 sequence (P09038 143-288): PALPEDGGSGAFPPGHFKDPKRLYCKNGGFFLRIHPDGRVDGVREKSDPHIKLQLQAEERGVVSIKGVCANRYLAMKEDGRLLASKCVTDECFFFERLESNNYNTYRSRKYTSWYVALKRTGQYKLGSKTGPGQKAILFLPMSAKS

Turning to ARKASRRSRQPARH (Chemically synthesized (Genscript)) [laminin α5 3312-3325 peptide (Linker)], the binding result in [1], in test [2], in test [3], in test [4], in [5] and in [6] was “no binding (tested: 1 µg/mL)” in each case.

B1: Scrambled HBD (peptide)
peptide: LYCEIARGYSLKRKVPDQIRSRKA
notes: also called scrambled vWF A1 HBD peptide
Consider B1, for which the figures for the binding result in test [7], in test [8] and in [9] were “no binding (tested: 1 µg/mL)”, “no binding (tested: 1 µg/mL)” and “no binding (tested: 1 µg/mL VEGF-A121 (single concentration))”, respectively.

Source of the values: US20240092867A1 (UNIVERSITY OF CHICAGO, published 2024).
